# Data: patent publication US8343490B2, “Monoclonal antibody SC104 and derivative thereof specifically binding to a sialyltetraosyl carbohydrate as a potential anti-tumor therapeutic agent” (Cephalon Australia Pty Ltd, priority 2004, dated 2013)
# Values joined by “and” are separate entries in the source; they are usually repeats but may differ in a detail not shown here. Identical values can stand only once.
# B1: SC104: mouse IgG1 monoclonal antibody specific for a sialyltetraosyl carbohydrate, raised by immunisation with colorectal cancer cell lines (antibody, V domains shown)
# VH: DVQLQESGPDLVKPSQSLSLTCTVTGYSITSGYSWHWVRQFPGNKMEWMGHIHFSGRPTYNPSLSSRISITRDTSKNQFLLQLKFVTTEDTSTYFCARKGKGSDDGLNYWGQGISVTVSS
# VL: ENVLTQSPVIMSASPGEKVTMTCSASSSLSYIHWYQQKSRTSPKLWIYDTSNLASGVPGRFSGSGSGNSYSLTISSMEAEDVATYYCFQGSEYPLTFGGGTKLEMT
# How the values were obtained:
# [1] = tested on: frozen normal tissue sections; assay: Immunohistochemistry staining of frozen normal tissue sections; type: binding, Human
# Protocol: • Immunohistochemistry staining of normal and tumour tissues. Human tissues were obtained from an Inveresk approved supplier. Each tissue used was snap frozen in liquid nitrogen and stored at approximately −70° C. (±10° C.). Cryostat sections were cut and placed onto super frost plus slides. All tissue samples were treated with an antigen marker appropriate for each tissue in order to confirm the preservation of antigens in that tissue. The markers used were keratin for epithelial bearing tissues, CD45 for all lymphoid tissues, and desmin for all cardiac and skeletal muscle. Each tissue was examined from three unrelated donors. The method of staining employed was an indirect, 2 or 3-stage method, using secondary and tertiary antibodies together with an avidin-biotin-peroxidase complex. Endogenous peroxidase activity was blocked using hydrogen peroxide. Endogenous biotin was blocked by treating all tissue sections with a sequence of avidin-biotin. When a tertiary antibody was used, all tissue sections were treated with normal swine serum, which inhibits the binding of tertiary antibodies to the tissues. Validation of the immunohistochemical staining method was determined by staining on positive control tissues, the absence on negative controls and the effect of fixation on staining of control tissues. SC104 was tested against 6 donors of colon tumour and one of heart at concentrations of […]. Tissues were fixed in either acetone or neutral buffered formalin. Two samples of colon tumour stained well enough for use as a positive control and there was no staining in heart. […] The lowest concentration of SC104 giving the maximum staining intensity was 1 μg/ml and this concentration was used for subsequent work. Results
# [2] = tested on: normal colonic extranuclear membranes; assay: ELISA on extranuclear membranes of normal colon; type: binding; conditions: one line per patient (1-7)
# Protocol: • Tumour and normal membrane extract binding. Extranuclear extractions of colorectal and normal colonic membranes were produced and binding of SC104 was assayed by ELISA. Results
# [3] = tested on: C14 antigen (90 KDa glycoprotein purified from saliva); assay: ELISA on C14 antigen; type: binding; conditions: FIG. 4
# Protocol: (§1) • Binding to purified antigen preparations. […] Binding of SC104 mab was assayed by ELISA as described above.
# [4] = ELISA on tumour glycolipid extract; type: binding; conditions: FIG. 4
# Protocol: as §1
# [5] = Blood group antigen ELISA, Lewis y; type: binding
# Protocol: (§2) The Lewis ^y hapten and the type I and type II H blood group antigen (Sigma, Poole, Dorset) were dried microtitre plates by overnight incubation at 37° C. Binding of SC104 mab was assayed by ELISA as described above.
# [6] = Blood group antigen ELISA, H type I; type: binding
# Protocol: as §2
# [7] = HPTLC immunostaining of commercially available lipid standards; type: binding; conditions: standards of Table 6 (lactosyl ceramide, Gb3, globoside, Forrsman, GM3, AGM1, GM1, GD3, GD1a, GD1b, GT1b)
# Excerpt: The SC104 antigen has been compared to a number of commercially available lipid standards. Examples of each standard were spotted onto HPTLC plates and developed in 50:40:10 chloroform:methanol:CaCl2 (0.5% w/v). Plates were also spotted with partially purified SC104 antigen. Migration of each standard was detected by iodine vapour staining and the location of each marked on the plate. Plates were then probed with SC104.
# C170 tumour cells = assay: Annexin/PI dual colour flow cytometry; type: cell-based; conditions: concentration greater than 10 μg/ml; cells in suspension
# Excerpt: Annexin/PI. Tumour cells ([…]) or appropriate controls for 4 hr at room temperature could then also be stained with FITC labelled annexin and propidium iodide (Sigma, Poole, Dorset) and then analysed by dual colour flow cytometry.
# C170 cells [8] = assay: Inhibition of SC104 cell death by z-FMK-vad caspase inhibitor; type: cell-based; conditions: 3 μg/ml SC104 with 3 μM z-FMK-vad inhibitor, overnight; annexin V FITC/PI
# Protocol: SC104 inhibition of cell death using the z-FMK-vad caspase inhibitor. 2×10^5 C170 cells were subjected to 3 μg/ml of SC104 and half were also incubated with 3 μM z-FMK-vad inhibitor (Promega, catalogue number G7232) and incubated overnight. The following day cell viability was assayed using annexin V FITC and propidium iodide.
# C146 = assay: Inhibition of cell growth, MTS; type: cell-based; conditions: 30 μg/ml
# Protocol: (§3) Inhibition of cell growth. 1×10^3 colorectal C170, C168, C146, CaCO2, Colo205, LoVo and HT29 cells were aliquoted into individual wells of a flat bottomed 96-well plate and left to adhere overnight at 37° C. The following day the cells were treated with: 10, 3, 1, 0.3 and 0 μg/ml of SC104 mab. As a negative control 791T/36 at concentrations 100, 30, 10, 3 and 0 μg/ml, was titrated against each concentration of drug used. Triplicate wells were used. Cells were left for 5 days at 37° C. prior to the addition of MTS reagent to each well and optical density reading at 490 nm.
# C168 = assay: Inhibition of cell growth, MTS; type: cell-based; conditions: 30 μg/ml
# Protocol: as §3
# CaCO2 = assay: Inhibition of cell growth, MTS; type: cell-based; conditions: 30 μg/ml
# Protocol: as §3
# HT-29 = assay: Inhibition of cell growth, MTS; type: cell-based; conditions: 30 μg/ml
# Protocol: as §3
# C170 cells [9] = assay: FACS antibody saturation on fresh and fixed cells; type: binding
# Protocol: FACS on fresh and fixed cells. C170 cells (10^5) either fresh or fixed with 0.5% glutaraldehyde for 1 hr were resuspended in 100 μl of SC104 mab (0-100 μg/ml) and incubated on ice for 1 hr. After washing the samples 3 times in RPMI/10% FCS cells were incubated with FITC labelled rabbit anti-mouse (1/80: Dako Ltd, Bucks, UK) antibody and incubated on ice for 30 minutes prior to analysing by FACS as described above.
# [10] = Normal Tissues: Large intestine
# [11] = Normal Tissues: Parotid salivary gland
# [12] = Normal Tissues: Small intestine
# [13] = Normal Tissues: Urinary Bladder
molecule,measurement,setting,value
B1,Comments on staining,[1]; Normal Tissues: Brain,Small number of scattered glial cells
same,Immunoreactivity with frozen tissue sections (binding),[1]; Normal Tissues: Brain,1/2
same,Comments on staining,[1]; Normal Tissues: Breast,Epithelial cells scattered moderate
same,Immunoreactivity with frozen tissue sections (binding),[1]; Normal Tissues: Breast,2/3
same,Comments on staining,[1]; Normal Tissues: Fallopian tube,Epithelial cells scattered moderate
same,Immunoreactivity with frozen tissue sections (binding),[1]; Normal Tissues: Fallopian tube,2/3
same,Immunoreactivity with frozen tissue sections (binding),[1]; Normal Tissues: Heart,0
same,Immunoreactivity with frozen tissue sections (binding),[1]; Normal Tissues: Kidney,0
same,Comments on staining,[1]; [10],"Epithelial cells, mucous, diffuse"
same,Immunoreactivity with frozen tissue sections (binding),[1]; [10],3/3
same,Comments on staining,[1]; Normal Tissues: Lung,Alveolar lining cells one donor
same,Immunoreactivity with frozen tissue sections (binding),[1]; Normal Tissues: Lung,2/3
same,Comments on staining,[1]; Normal Tissues: Ovary,Follicular cells scattered and mild
same,Immunoreactivity with frozen tissue sections (binding),[1]; Normal Tissues: Ovary,3/3
same,Comments on staining,[1]; [11],Moderate
same,Immunoreactivity with frozen tissue sections (binding),[1]; [11],3/3
same,Immunoreactivity with frozen tissue sections (binding),[1]; Normal Tissues: Placenta,0
same,Comments on staining,[1]; Normal Tissues: Prostate,Epithelial cells scatted and moderate
same,Immunoreactivity with frozen tissue sections (binding),[1]; Normal Tissues: Prostate,3/3
same,Comments on staining,[1]; Normal Tissues: Skin,Diffuse minimal staining
same,Immunoreactivity with frozen tissue sections (binding),[1]; Normal Tissues: Skin,2/3
same,Comments on staining,[1]; [12],"Mucus superficial, diffuse minimal"
same,Immunoreactivity with frozen tissue sections (binding),[1]; [12],3/3
same,Immunoreactivity with frozen tissue sections (binding),[1]; Normal Tissues: Spleen,0
same,Comments on staining,[1]; Normal Tissues: Stomach,"Mucus superficial, diffuse mild"
same,Immunoreactivity with frozen tissue sections (binding),[1]; Normal Tissues: Stomach,2/3
same,Comments on staining,[1]; Normal Tissues: Thymus,"Epithelial cells, Hassall's corpuscle,"
same,Immunoreactivity with frozen tissue sections (binding),[1]; Normal Tissues: Thymus,3/3
same,Comments on staining,[1]; Normal Tissues: Tonsil,"Keratinised epithelium, membrane,"
same,Immunoreactivity with frozen tissue sections (binding),[1]; Normal Tissues: Tonsil,3/3
same,Comments on staining,[1]; [13],Epithelial cells transitional
same,Immunoreactivity with frozen tissue sections (binding),[1]; [13],2/2
same,Comments on staining,[1]; Normal Tissues: Uterine cervix,"Epithelial cells, membrane, diffuse"
same,Immunoreactivity with frozen tissue sections (binding),[1]; Normal Tissues: Uterine cervix,3/3
same,Binding of SC104 mab to extranuclear membranes: Normal colon,[2],0.217 and 0.042 and 0.066 and 0.035 and 0.139 and 0.001 and 0.068
same,binding to Lewis ^y/b expressing 90 KDa glycoprotein from saliva by ELISA,[3],bound
same,binding to methanol/chloroform tumour glycolipid extract by ELISA,[4],A similar result was obtained
same,Binding to blood group antigens by ELISA: Lewis ^y,[5],0.057 OD 405 nm
same,Binding to blood group antigens by ELISA: H blood group Type I,[6],0.087 OD 405 nm
same,recognition of lipid standards,[7],none of the standards were recognised by SC104
same,cells staining with PI,C170 tumour cells,75%
same,cells staining with annexin,C170 tumour cells,30%
same,cells staining with both annexin and PI,C170 tumour cells,65%
same,increase in viable cells in the presence of the inhibitor,C170 cells [8],23%
same,% inhibition of cell growth as measured by MTS staining,C146,65%
same,% inhibition of cell growth as measured by MTS staining,C168,55%
same,% inhibition of cell growth as measured by MTS staining,CaCO2,20%
same,% inhibition of cell growth as measured by MTS staining,HT-29,5%
same,number of SC104 haptens at the surface of C170 tumour cells,C170 cells [9],approximately 4×10^5 sites per cell
same,antigen saturation on fresh and fixed cells,"C170 cells [9]; SC104 0-100 μg/ml, FIG. 22",not saturated even at SC104 concentration of 100 μg/ml
